Results as given in patent US20230293738A1 (Y MABS THERAPEUTICS, published 2023).
Where two headings read alike, the source gives them in different places.

What was measured:
[1] = target: T1, human 4Ig-B7H3 (B7H3-4Ig-His) (human, UniProt Q5ZPR3 29-466); assay: SPR, Biacore T200, 4Ig-B7H3-His on CM5 chip, 1:1 fit
T1 construct: Recombinant His-tagged protein immobilised on a CM5 chip; also called 41g-B7H3; human 4Ig-B7-H3 (dominant isoform); not shown: His tag
T1 sequence: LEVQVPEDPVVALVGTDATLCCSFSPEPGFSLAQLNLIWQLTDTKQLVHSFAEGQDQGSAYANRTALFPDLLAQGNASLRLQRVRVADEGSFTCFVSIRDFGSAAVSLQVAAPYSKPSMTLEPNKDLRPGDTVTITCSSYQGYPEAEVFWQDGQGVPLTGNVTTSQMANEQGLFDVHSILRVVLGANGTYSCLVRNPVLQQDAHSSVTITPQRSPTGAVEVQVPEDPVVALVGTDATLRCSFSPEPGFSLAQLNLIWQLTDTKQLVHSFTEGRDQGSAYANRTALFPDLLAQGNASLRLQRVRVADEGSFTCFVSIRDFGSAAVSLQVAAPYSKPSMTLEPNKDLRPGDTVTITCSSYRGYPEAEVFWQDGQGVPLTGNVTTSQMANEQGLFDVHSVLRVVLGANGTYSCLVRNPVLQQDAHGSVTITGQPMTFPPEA

[2] = target: T2, human 2Ig-B7H3 (B7H3-2Ig-His) (human, UniProt Q5ZPR3 29-466); assay: SPR, Biacore T200, 2Ig-B7H3-His on CM5 chip, 1:1 fit; * beyond fitting limits
T2 construct: Recombinant His-tagged protein immobilised on a CM5 chip; also called 21g-B7H3; B7H3-21g-His; not shown: His tag
T2 sequence: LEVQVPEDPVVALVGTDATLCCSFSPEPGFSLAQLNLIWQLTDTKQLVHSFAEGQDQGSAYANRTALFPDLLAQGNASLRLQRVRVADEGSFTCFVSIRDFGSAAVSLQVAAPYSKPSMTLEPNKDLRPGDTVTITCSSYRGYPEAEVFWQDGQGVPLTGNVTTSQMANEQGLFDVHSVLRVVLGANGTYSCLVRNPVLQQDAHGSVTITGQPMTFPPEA

[3] = target: T2, human 2Ig-B7H3 (B7H3-2Ig-His); assay: SPR, Biacore T200, 2Ig-B7H3-His on CM5 chip, 1:1 fit
[4] = target: T1, human 4Ig-B7H3 (B7H3-4Ig-His); assay: SPR, Biacore T200, 4Ig-B7H3-His on CM5 chip, 1:1 fit; remark: listed apart in the source
Protocol: (§1) Both human B7H3 41g and 21g proteins were dissolved in PBS (Phosphate-Buffered Saline) to make 0.1 mg/ml stock solution and stored in −80° C. B7-H3 proteins were immobilized onto the CM5 sensor chip using Amine Coupling Kit. Both proteins were diluted to 10 ug/ml with 10 mM Sodium acetate, pH 5.0. […] A blank immobilized surface was used as a control
(§2) Binding Assays: [0143] 1. Antibodies were diluted in HBS-EP buffer (10 mM HEPES, 150 mM NaCl, 3 mM EDTA, 0.05% Surfactant P20, pH 7.4) at varying concentrations (25-50-100-200-400 nM) prior to analysis. […] 2. Samples (60 ul) were injected over the sensor surface at a flow rate of 30 ul/min over 2 min. [0145] 3. Following completion of the association phase, dissociation was monitored in HBS-EP buffer for 10 min at the same flow rate. […] 4. At the end of each cycle, the surface was regenerated using 10 mM NaOH at a flow rate of 50 ul/min over 2×15 sec.

[5] = target: T2, human 2Ig-B7H3 (B7H3-2Ig-His); assay: SPR, Biacore T200, 2Ig-B7H3-His on CM5 chip, 1:1 fit; remark: listed apart in the source
Protocol: as §1, §2
(§3) The data were analyzed by the 1:1 fitting model and default parameter setting for the rate constants using the Biacore T200 Evaluation Software, and the apparent association on rate constant (kon, ka), dissociation off rate constant (koff, kd) and equilibrium dissociation constant (KD=kd/ka) were calculated.

[6] = target: T2, human 2Ig-B7H3 (B7H3-2Ig-His); assay: SPR
Protocol: as §1, §2

[7] = target: T1, human 4Ig-B7H3 (B7H3-4Ig-His); assay: SPR
Protocol: as §1, §2

[8] = target: T2, human 2Ig-B7H3 (B7H3-2Ig-His); assay: SPR; CHX-A''-DTPA conjugate, CAR 1.4, unlabeled
[9] = target: T2, human 2Ig-B7H3 (B7H3-2Ig-His); assay: SPR; remark: listed apart in the source
Protocol: as §1, §3

[10] = target: T1, human 4Ig-B7H3 (B7H3-4Ig-His); assay: SPR; remark: listed apart in the source
Protocol: as §1, §3

[11] = target: T2, human 2Ig-B7H3 (B7H3-2Ig-His); assay: SPR, Biacore T200, 2Ig-B7H3-His on CM5 chip, 1:1 fit; CHX-A''-DTPA conjugate, CAR 6.1, labeled with cold 175Lu
Protocol: as §1, §2

[12] = target: T2, human 2Ig-B7H3 (B7H3-2Ig-His); assay: SPR, Biacore T200, 2Ig-B7H3-His on CM5 chip, 1:1 fit; remark: listed apart in the source
Protocol: as §1, §3

[13] = target: T1, human 4Ig-B7H3 (B7H3-4Ig-His); assay: SPR, Biacore T200, 4Ig-B7H3-His on CM5 chip, 1:1 fit; remark: listed apart in the source
Protocol: as §1, §3

[14] = target: T2, human 2Ig-B7H3 (B7H3-2Ig-His); assay: SPR, Biacore T200, 2Ig-B7H3-His on CM5 chip, 1:1 fit; DOTA conjugate, CAR 6.3, labeled with cold 175Lu
Protocol: as §1, §2

| Molecule | Kd [4] [nM] | t ½ [4] [h] | Kd [5] [nM] | T ½ [5] [h] | t ½ [12] [h] | Kd [13] [nM] | t ½ [13] [h] | other results |
| --- | --- | --- | --- | --- | --- | --- | --- | --- |
| 127I-Humanized-8H9-antibody | – | – | – | – | – | – | – | Kd [1]: 0.24 nM; koff [1]: 2.68e-05 s⁻¹; kon [1]: 112000 M⁻¹ s⁻¹; t ½ [1]: 7.17 h; koff [2]: 7.66e-07 s⁻¹; Kd [3]: 0.00212 nM; kon [3]: 361000 M⁻¹ s⁻¹; t ½ [3]: 251 h |
| 8H9 antibody conjugated with p-SCN-Bn-DOTA, CAR 0.8 (antibody, mouse IgG1, kappa, V domains shown, p-SCN-Bn-DOTA conjugated, CAR 0.8 per antibody; sites not stated, Chelator conjugate, not metal-labelled) VH: QVQLQQSGAELVKPGASVKLSCKASGYTFTNYDINWVRQRPEQGLEWIGWIFPGDGSTQYNEKFKGKATLTTDTSSSTAYMQLSRLTSEDSAVYFCARQTTATWFAYWGQGTLVTVSA VL: DIVMTQSPATLSVTPGDRVSLSCRASQSISDYLHWYQQKSHESPRLLIKYASQSISGIPSRFSGSGSGSDFTLSINSVEPEDVGVYYCQNGHSFPLTFGAGTKLELKR | 5.76 | 1.67 | 0.166 | 39.2 | – | – | – | – |
| 8H9 antibody conjugated with p-SCN-Bn-CHX-A″-DTPA, CAR 1.4 (antibody, mouse IgG1, kappa, V domains shown, p-SCN-Bn-CHX-A″-DTPA conjugated, CAR 1.4 per antibody; sites not stated, Chelator conjugate, not metal-labelled) VH: QVQLQQSGAELVKPGASVKLSCKASGYTFTNYDINWVRQRPEQGLEWIGWIFPGDGSTQYNEKFKGKATLTTDTSSSTAYMQLSRLTSEDSAVYFCARQTTATWFAYWGQGTLVTVSA VL: DIVMTQSPATLSVTPGDRVSLSCRASQSISDYLHWYQQKSHESPRLLIKYASQSISGIPSRFSGSGSGSDFTLSINSVEPEDVGVYYCQNGHSFPLTFGAGTKLELKR | 10 | 1.09 | 1.93 | 3.94 | – | – | – | t ½ [6]: 3.94 h; Kd [7]: 10 nM; t ½ [7]: 1.09 h; Kd [8]: 1.93 nM |
| 175Lu-DTPA-8H9-antibody (CAR6.1) (antibody, mouse IgG1, kappa, V domains shown, p-SCN-Bn-CHX-A″-DTPA conjugated (CAR 6.1 per antibody), labelled with cold lutetium-175; sites not stated) VH: QVQLQQSGAELVKPGASVKLSCKASGYTFTNYDINWVRQRPEQGLEWIGWIFPGDGSTQYNEKFKGKATLTTDTSSSTAYMQLSRLTSEDSAVYFCARQTTATWFAYWGQGTLVTVSA VL: DIVMTQSPATLSVTPGDRVSLSCRASQSISDYLHWYQQKSHESPRLLIKYASQSISGIPSRFSGSGSGSDFTLSINSVEPEDVGVYYCQNGHSFPLTFGAGTKLELKR | – | – | – | – | 1.82 | 34 | 0.4 | t ½ [9]: 1.82 h; Kd [10]: 34 nM; t ½ [10]: 0.4 h; Kd [11]: 7.21 nM |
| 8H9 antibody conjugated with p-SCN-Bn-DOTA, CAR 7.5 (antibody, mouse IgG1, kappa, V domains shown, p-SCN-Bn-DOTA conjugated, CAR 7.5 per antibody; sites not stated, Chelator conjugate, not metal-labelled) VH: QVQLQQSGAELVKPGASVKLSCKASGYTFTNYDINWVRQRPEQGLEWIGWIFPGDGSTQYNEKFKGKATLTTDTSSSTAYMQLSRLTSEDSAVYFCARQTTATWFAYWGQGTLVTVSA VL: DIVMTQSPATLSVTPGDRVSLSCRASQSISDYLHWYQQKSHESPRLLIKYASQSISGIPSRFSGSGSGSDFTLSINSVEPEDVGVYYCQNGHSFPLTFGAGTKLELKR | 14.6 | 1.03 | 1.71 | 6.58 | – | – | – | – |
| 8H9 antibody conjugated with p-SCN-Bn-DOTA, CAR 2.6 (antibody, mouse IgG1, kappa, V domains shown, p-SCN-Bn-DOTA conjugated, CAR 2.6 per antibody; sites not stated, Chelator conjugate, not metal-labelled) VH: QVQLQQSGAELVKPGASVKLSCKASGYTFTNYDINWVRQRPEQGLEWIGWIFPGDGSTQYNEKFKGKATLTTDTSSSTAYMQLSRLTSEDSAVYFCARQTTATWFAYWGQGTLVTVSA VL: DIVMTQSPATLSVTPGDRVSLSCRASQSISDYLHWYQQKSHESPRLLIKYASQSISGIPSRFSGSGSGSDFTLSINSVEPEDVGVYYCQNGHSFPLTFGAGTKLELKR | 7.57 | 1.42 | 0.58 | 14 | – | – | – | – |
| hu8H9-3.1 (antibody, V domains shown) VH: QVQLVQSGAEVVKPGASVKLSCKTSGYTFTNYDINWVRQRPGQGLEWIGWIFPGDDSTQYNEKFKGKATLTTDTSTSTAYMELSSLRSEDTAVYFCARQTTGTWFAYWGQGTLVTVSS VL: EIVMTQSPATLSVSPGERVTLSCRASQSISDYLYWYQQKSHESPRLLIKYASQSISGIPARFSGSGSGSEFTLTINSVEPEDVGVYYCQNGHSFPLTFGQGTKLELKR | – | – | – | – | 1.89 | 8.87 | 0.769 | Kd [12]: 2.22 nM; koff [12]: 0.000102 s⁻¹; kon [12]: 45900 M⁻¹ s⁻¹; koff [13]: 0.000251 s⁻¹; kon [13]: 28300 M⁻¹ s⁻¹ |
| 175Lu-DOTA-8H9-antibody (CAR2.6) (antibody, mouse IgG1, kappa, V domains shown, p-SCN-Bn-DOTA conjugated (CAR 2.6 per antibody), labelled with cold lutetium-175; sites not stated) VH: QVQLQQSGAELVKPGASVKLSCKASGYTFTNYDINWVRQRPEQGLEWIGWIFPGDGSTQYNEKFKGKATLTTDTSSSTAYMQLSRLTSEDSAVYFCARQTTATWFAYWGQGTLVTVSA VL: DIVMTQSPATLSVTPGDRVSLSCRASQSISDYLHWYQQKSHESPRLLIKYASQSISGIPSRFSGSGSGSDFTLSINSVEPEDVGVYYCQNGHSFPLTFGAGTKLELKR | – | – | – | – | 6.11 | 15.7 | 0.822 | Kd [12]: 1.74 nM |
| 8H9 antibody conjugated with p-SCN-Bn-DOTA, CAR 2.4 (antibody, mouse IgG1, kappa, V domains shown, p-SCN-Bn-DOTA conjugated, CAR 2.4 per antibody; sites not stated, Chelator conjugate, not metal-labelled) VH: QVQLQQSGAELVKPGASVKLSCKASGYTFTNYDINWVRQRPEQGLEWIGWIFPGDGSTQYNEKFKGKATLTTDTSSSTAYMQLSRLTSEDSAVYFCARQTTATWFAYWGQGTLVTVSA VL: DIVMTQSPATLSVTPGDRVSLSCRASQSISDYLHWYQQKSHESPRLLIKYASQSISGIPSRFSGSGSGSDFTLSINSVEPEDVGVYYCQNGHSFPLTFGAGTKLELKR | 8.61 | 1.4 | 0.222 | 41.1 | – | – | – | – |
| 175Lu-DOTA-8H9-antibody (CAR6.3) (antibody, mouse IgG1, kappa, V domains shown, p-SCN-Bn-DOTA conjugated (CAR 6.3 per antibody), labelled with cold lutetium-175; sites not stated) VH: QVQLQQSGAELVKPGASVKLSCKASGYTFTNYDINWVRQRPEQGLEWIGWIFPGDGSTQYNEKFKGKATLTTDTSSSTAYMQLSRLTSEDSAVYFCARQTTATWFAYWGQGTLVTVSA VL: DIVMTQSPATLSVTPGDRVSLSCRASQSISDYLHWYQQKSHESPRLLIKYASQSISGIPSRFSGSGSGSDFTLSINSVEPEDVGVYYCQNGHSFPLTFGAGTKLELKR | – | – | – | – | 5.39 | 19.5 | 0.742 | Kd [14]: 2.34 nM |
